Four molecules from article PMC4352895 (2015) can be followed below.

To fix the notation:
B1: H3K27me2 (peptide)
chain: QLATKAARKSAPATG
modifications: dimethyl-Lys27 (mature numbering; K28 of precursor). Taken as the H3K27me2 peptide of the Figure 5C table; limits are mature 19-33 by convention for Eed binding peptides, not given

Ends that are not written are not given here. Me3 = trimethyl-lysine; Me2 = dimethyl-lysine

This assay deals with ΔEed (Eed residues 77 to 441) (UniProt O75530 77-441). Briefly: ITC.
Chain of ΔEed (Eed residues 77 to 441) (O75530 77-441, stated change not applied): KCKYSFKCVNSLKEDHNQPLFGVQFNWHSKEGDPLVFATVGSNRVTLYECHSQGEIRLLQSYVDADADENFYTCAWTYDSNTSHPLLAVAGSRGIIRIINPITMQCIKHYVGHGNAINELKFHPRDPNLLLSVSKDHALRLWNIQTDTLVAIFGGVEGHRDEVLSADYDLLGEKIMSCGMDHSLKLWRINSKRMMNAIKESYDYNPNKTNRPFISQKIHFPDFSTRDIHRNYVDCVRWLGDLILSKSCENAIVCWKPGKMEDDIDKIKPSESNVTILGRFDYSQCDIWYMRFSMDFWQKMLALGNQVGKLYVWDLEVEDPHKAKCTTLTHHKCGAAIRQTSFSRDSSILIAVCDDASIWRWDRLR
RLQAQRK(Me2)FAQSQY [Jarid2-K116me2 peptide]: binding was put at a Kd of 10.4 µM.

With RLQAQRK(Me3)FAQSQY [Jarid2-K116me3 peptide], the Kd came to 3.4 µM.

Turning to B1, the Kd is 68 µM.

QLATKAARKSAPATG (trimethyl-lysine at K27) [H3K27me3 peptide]: the Kd came to 36.4 µM.
